From article PMC7855791
Where two headings read alike, the source gives them in different places.

How the values were obtained:
[1] = target: T1, Spo11 wild type (core complex subunit);Ski8;Rec102;Rec104 (Saccharomyces cerevisiae;Saccharomyces …, UniProt P23179;Q02793;Q02721;P33323 1-398;1-397;1-264;1-182, |||); experiment: FeBABE footprinting
[2] = target: T1, Spo11 wild type (core complex …); experiment: FeBABE footprinting; remark: listed apart in the source

T1 sequence (P23179 whole entry, chain 1 of 4): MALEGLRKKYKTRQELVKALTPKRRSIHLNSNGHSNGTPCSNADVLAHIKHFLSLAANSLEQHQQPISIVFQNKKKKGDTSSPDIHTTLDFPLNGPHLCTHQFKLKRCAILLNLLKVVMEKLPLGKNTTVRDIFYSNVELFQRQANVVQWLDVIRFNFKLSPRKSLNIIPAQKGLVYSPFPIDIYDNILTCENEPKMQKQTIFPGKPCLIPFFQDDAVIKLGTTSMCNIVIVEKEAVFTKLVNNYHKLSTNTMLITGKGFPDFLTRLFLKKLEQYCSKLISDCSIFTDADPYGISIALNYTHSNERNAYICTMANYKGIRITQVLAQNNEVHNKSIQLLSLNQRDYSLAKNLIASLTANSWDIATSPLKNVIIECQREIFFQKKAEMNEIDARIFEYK
T1 sequence (Q02793 whole entry, chain 2 of 4): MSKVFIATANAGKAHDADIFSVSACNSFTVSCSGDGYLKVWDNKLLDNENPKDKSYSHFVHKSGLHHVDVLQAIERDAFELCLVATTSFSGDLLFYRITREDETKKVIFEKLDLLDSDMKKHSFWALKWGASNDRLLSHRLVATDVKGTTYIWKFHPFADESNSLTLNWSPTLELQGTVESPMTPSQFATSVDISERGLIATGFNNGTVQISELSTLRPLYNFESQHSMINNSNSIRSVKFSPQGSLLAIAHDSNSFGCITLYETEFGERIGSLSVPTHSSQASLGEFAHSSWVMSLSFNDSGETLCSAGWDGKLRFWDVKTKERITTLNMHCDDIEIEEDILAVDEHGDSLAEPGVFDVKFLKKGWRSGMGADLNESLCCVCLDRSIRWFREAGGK
T1 sequence (Q02721 whole entry, chain 3 of 4): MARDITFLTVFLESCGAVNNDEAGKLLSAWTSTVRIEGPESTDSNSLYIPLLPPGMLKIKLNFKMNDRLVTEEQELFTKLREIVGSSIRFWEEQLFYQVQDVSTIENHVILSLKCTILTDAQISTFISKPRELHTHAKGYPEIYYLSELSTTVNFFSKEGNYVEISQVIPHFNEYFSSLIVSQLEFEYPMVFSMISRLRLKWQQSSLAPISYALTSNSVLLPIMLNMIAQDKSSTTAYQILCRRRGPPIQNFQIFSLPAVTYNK
T1 sequence (P33323 whole entry, chain 4 of 4): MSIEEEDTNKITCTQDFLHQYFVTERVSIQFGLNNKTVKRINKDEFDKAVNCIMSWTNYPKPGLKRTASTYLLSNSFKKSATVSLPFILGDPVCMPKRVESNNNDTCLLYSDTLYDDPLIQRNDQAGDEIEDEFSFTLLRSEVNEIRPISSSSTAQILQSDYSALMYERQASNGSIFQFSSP

B1: 5'-TA-distal FeBABE probe (cb958/cb960) (dsDNA)
DNA 1: TAGCAATGTAATCGTCTATGACGTT
DNA 2: AACGTCATAGACGATTACATTGC
modifications: 5 phosphorothioates with FeBABE on strand 2 (after nt 2,4,6,8,10)
B1: binds [1].

B2: 5'-TA-proximal FeBABE probe (cb958/cb961) (dsDNA)
DNA 1: TAGCAATGTAATCGTCTATGACGTT
DNA 2: AACGTCATAGACGATTACATTGC
modifications: 5 phosphorothioates with FeBABE on strand 2 (after nt 13,15,17,19,21)
B2: binds [2].
